This note sets out measurements from paper doi:10.1101/2024.08.22.609182.

This assay concerns the target AIFM1 OM (obligate monomeric AIFM1 variant, triple mutant in the dimerisation interface) (human) (UniProt O95831). The assay is described as follows: mass photometry.

AIFM1 OM (obligate monomeric AIFM1 variant, triple mutant in the dimerisation interface) (human), sequence (O95831 102-613, change not shown): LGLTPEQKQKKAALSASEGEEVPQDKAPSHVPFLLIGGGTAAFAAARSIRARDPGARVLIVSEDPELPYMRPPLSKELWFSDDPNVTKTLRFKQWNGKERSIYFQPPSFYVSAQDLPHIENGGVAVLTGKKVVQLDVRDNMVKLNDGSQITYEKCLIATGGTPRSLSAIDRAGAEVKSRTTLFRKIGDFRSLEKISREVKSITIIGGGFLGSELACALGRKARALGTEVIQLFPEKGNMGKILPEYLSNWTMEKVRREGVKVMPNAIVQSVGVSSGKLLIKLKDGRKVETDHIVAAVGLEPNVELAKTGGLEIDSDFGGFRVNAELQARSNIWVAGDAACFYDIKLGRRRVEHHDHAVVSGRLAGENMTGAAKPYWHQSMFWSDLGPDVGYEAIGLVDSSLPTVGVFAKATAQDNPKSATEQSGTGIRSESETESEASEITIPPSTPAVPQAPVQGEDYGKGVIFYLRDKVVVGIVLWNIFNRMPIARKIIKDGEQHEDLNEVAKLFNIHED

For the substance “adenylate kinase 2 (AK2), recombinant human (from UniProt P54819 1-239) (enzyme)”, the stoichiometry N (AK2 per AIFM1 (printed as 1:1)) was found to be 1.
